Residue numbers refer to the chain shown, from its start.
B1: Molecule B (bispecific antibody, V domains shown)
VH 1: YPQLVESGGGLVKPGGSLRLSCAARYPFTRLDMSWVRQAPGKGLEWVGSISPKGGSTYYNDNVLGRFTISRDNSKNTLYLQMNSLRAEDTAVYYCARDWGFFDNWGQGTLVTVSS
VL 1: AIQMTQSPSSLSASVGDRVTITCRASQSISNYLAWYQQKPGKAPKLLIYNASHPEYDVPSRFSGSGSGTDFTLTISSLQPEDFATYYCQQYSSHPYTFGQGTKLEIK
VH 2: not shown
VL 2: QAVVTQEPSLTVSPGGTVTLTCGSSTGAVTTSNYANWVQEKPGQAFRGLIGGTNKRAPGTPARFSGSLLGGKAALTLSGAQPEDEAEYYCALWYSNLWVFGGGTKLTVL
How did the % of MAGE-A4 signal, Jurkat-NFAT; grey (>2%) (TRANK1) turn out when B1 was run?
The % of MAGE-A4 signal, Jurkat-NFAT; grey (>2%) was 7.67%.

What about the % of MAGE-A4 signal, Jurkat-NFAT; grey (>2%) (DPYSL2) of the same binder?
Its % of MAGE-A4 signal, Jurkat-NFAT; grey (>2%) is 5.19%.

And the % of MAGE-A4 signal, Jurkat-NFAT; grey (>2%) (AGFG2)?
The % of MAGE-A4 signal, Jurkat-NFAT; grey (>2%) was 13.3%.

B2: Molecule A (bispecific antibody, V domains shown)
VH 1: B1 VH 1 with P2V, R25P, Y26L, R30G, N104L
VL 1: B1 VL 1 with N50D, S52N, H53A, P54H, Y56N
VH 2: not shown
VL 2: B1 VL 2
With B2 as the binder, how does the % of MAGE-A4 signal, Jurkat-NFAT; grey (>2%) (TRANK1) read?
The % of MAGE-A4 signal, Jurkat-NFAT; grey (>2%) was 4.56%.

What about the % of MAGE-A4 signal, Jurkat-NFAT; grey (>2%) (AGFG2) of the same binder?
Its % of MAGE-A4 signal, Jurkat-NFAT; grey (>2%) is 86.5%.

— patent US20260098095A1

Sequence of TRANK1 (beta, as listed by the source limits assumed, chain 3 of 2, other chains not shown): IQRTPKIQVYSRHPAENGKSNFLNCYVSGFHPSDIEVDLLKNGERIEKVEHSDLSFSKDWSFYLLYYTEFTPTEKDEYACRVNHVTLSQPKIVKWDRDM
Sequence of AGFG2 (beta, as listed by the source limits assumed, chain 3 of 2, other chains not shown): as above
Sequence of DPYSL2 (beta, as listed by the source limits assumed, chain 3 of 2, other chains not shown): as above
